Source: PMC3799435, “Dissecting the interactions of SERRATE with RNA and DICER-LIKE 1 in Arabidopsis microRNA precursor processing” (Nucleic Acids Research, 2013)

Experiments:
SE1-701 = biological target: T1, SE1-701 (Arabidopsis thaliana, UniProt Q9ZVD0 1-701, del702-720); experiment: SPR; 50 mM NaCl, 20 nM; as wild-type SE; SPR (Biacore T100): 20 mM Tris-HCl pH 7.0, 50 or 150 mM NaCl, 2 mM β-ME (0.005% P20 for SE variants); proteins 42-43 nM (Fig 2E), SE 20 nM (Fig 4), 16 nM DCL1 for complex; temperature not stated; conditions: protein: recombinant; tags: N-terminal His6; vector also has inserted myc and Strep-tag II; label: 5'-biotin on strand 1; fork: 40 bp duplex; 20-nt 3' tail of strand 1 and 20-nt 5' tail of strand 2 unpaired; other end blunt
T1 sequence: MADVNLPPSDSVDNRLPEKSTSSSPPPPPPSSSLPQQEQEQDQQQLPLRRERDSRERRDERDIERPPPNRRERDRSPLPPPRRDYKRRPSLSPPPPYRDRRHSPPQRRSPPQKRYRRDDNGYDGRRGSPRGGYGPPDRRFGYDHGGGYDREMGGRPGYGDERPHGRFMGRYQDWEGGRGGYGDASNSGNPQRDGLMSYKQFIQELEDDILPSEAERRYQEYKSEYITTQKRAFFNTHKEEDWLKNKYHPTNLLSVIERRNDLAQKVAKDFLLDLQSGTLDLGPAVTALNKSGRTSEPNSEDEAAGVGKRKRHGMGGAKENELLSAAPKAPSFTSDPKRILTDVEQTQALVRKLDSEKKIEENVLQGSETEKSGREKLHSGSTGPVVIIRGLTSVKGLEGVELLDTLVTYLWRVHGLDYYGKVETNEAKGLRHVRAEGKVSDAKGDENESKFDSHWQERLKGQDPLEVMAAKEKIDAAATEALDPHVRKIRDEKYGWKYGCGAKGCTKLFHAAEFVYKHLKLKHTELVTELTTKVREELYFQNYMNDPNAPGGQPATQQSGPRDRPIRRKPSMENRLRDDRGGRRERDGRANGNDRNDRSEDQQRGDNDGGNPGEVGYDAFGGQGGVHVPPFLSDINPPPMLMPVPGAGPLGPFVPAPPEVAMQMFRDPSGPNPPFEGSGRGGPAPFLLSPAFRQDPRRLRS

SEΔ497-547 = biological target: T2, SEΔ497-547 (Arabidopsis thaliana, UniProt Q9ZVD0 1-720, del497-547); experiment: as above; conditions: protein: recombinant; tags: N-terminal His6; vector also has inserted myc and Strep-tag II; label: 5'-biotin on strand 1; fork: 40 bp duplex; 20-nt 3' tail of strand 1 and 20-nt 5' tail of strand 2 unpaired; other end blunt
T2 sequence: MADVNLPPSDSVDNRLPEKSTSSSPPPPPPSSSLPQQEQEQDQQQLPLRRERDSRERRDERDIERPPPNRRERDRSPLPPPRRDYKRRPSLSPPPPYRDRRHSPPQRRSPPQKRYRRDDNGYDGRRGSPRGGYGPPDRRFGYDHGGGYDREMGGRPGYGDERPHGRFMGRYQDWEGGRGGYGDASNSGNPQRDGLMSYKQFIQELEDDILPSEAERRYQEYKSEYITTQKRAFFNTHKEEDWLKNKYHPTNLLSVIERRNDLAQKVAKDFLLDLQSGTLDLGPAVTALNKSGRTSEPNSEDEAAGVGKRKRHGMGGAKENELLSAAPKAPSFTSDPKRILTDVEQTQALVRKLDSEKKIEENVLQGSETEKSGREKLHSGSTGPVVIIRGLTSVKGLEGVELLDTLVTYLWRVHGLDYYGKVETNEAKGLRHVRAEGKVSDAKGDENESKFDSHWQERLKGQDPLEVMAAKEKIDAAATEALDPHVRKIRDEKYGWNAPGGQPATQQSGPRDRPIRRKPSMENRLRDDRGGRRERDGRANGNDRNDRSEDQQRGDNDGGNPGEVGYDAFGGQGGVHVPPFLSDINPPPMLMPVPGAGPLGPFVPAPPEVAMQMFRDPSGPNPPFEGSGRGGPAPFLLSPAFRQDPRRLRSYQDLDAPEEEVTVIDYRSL

DCL1;SE1-701 = DCL1;SE1-701 (Arabidopsis thaliana;Arabidopsis …, UniProt Q9SP32;Q9ZVD0 1-1909;1-701, |del702-720); experiment: SPR; SE1-701 injected on preformed DCL1/RNA complex, 50 mM NaCl; as wild-type SE; SPR (Biacore T100): 20 mM Tris-HCl pH 7.0, 50 or 150 mM NaCl, 2 mM β-ME (0.005% P20 for SE variants); proteins 42-43 nM (Fig 2E), SE 20 nM (Fig 4), 16 nM DCL1 for complex; temperature not stated; conditions: protein: recombinant;recombinant; tags: none (His6-StrepII-SUMOstar removed);N-terminal His6; vector also has inserted myc and Strep-tag II; label: 5'-biotin on strand 1; fork: 40 bp duplex; 20-nt 3' tail of strand 1 and 20-nt 5' tail of strand 2 unpaired; other end blunt
DCL1 = DCL1 (Arabidopsis thaliana, UniProt Q9SP32 1-1909); experiment: SPR; 50 mM NaCl; SPR (Biacore T100): 20 mM Tris-HCl pH 7.0, 50 or 150 mM NaCl, 2 mM β-ME (0.005% P20 for SE variants); proteins 42-43 nM (Fig 2E), SE 20 nM (Fig 4), 16 nM DCL1 for complex; temperature not stated; conditions: protein: recombinant; tags: none (His6-StrepII-SUMOstar removed); chain copies: 3; label: 5'-biotin on strand 1; fork: 40 bp duplex; 20-nt 3' tail of strand 1 and 20-nt 5' tail of strand 2 unpaired; other end blunt

Measured: binding result

DCL1, sequence (Q9SP32 whole entry): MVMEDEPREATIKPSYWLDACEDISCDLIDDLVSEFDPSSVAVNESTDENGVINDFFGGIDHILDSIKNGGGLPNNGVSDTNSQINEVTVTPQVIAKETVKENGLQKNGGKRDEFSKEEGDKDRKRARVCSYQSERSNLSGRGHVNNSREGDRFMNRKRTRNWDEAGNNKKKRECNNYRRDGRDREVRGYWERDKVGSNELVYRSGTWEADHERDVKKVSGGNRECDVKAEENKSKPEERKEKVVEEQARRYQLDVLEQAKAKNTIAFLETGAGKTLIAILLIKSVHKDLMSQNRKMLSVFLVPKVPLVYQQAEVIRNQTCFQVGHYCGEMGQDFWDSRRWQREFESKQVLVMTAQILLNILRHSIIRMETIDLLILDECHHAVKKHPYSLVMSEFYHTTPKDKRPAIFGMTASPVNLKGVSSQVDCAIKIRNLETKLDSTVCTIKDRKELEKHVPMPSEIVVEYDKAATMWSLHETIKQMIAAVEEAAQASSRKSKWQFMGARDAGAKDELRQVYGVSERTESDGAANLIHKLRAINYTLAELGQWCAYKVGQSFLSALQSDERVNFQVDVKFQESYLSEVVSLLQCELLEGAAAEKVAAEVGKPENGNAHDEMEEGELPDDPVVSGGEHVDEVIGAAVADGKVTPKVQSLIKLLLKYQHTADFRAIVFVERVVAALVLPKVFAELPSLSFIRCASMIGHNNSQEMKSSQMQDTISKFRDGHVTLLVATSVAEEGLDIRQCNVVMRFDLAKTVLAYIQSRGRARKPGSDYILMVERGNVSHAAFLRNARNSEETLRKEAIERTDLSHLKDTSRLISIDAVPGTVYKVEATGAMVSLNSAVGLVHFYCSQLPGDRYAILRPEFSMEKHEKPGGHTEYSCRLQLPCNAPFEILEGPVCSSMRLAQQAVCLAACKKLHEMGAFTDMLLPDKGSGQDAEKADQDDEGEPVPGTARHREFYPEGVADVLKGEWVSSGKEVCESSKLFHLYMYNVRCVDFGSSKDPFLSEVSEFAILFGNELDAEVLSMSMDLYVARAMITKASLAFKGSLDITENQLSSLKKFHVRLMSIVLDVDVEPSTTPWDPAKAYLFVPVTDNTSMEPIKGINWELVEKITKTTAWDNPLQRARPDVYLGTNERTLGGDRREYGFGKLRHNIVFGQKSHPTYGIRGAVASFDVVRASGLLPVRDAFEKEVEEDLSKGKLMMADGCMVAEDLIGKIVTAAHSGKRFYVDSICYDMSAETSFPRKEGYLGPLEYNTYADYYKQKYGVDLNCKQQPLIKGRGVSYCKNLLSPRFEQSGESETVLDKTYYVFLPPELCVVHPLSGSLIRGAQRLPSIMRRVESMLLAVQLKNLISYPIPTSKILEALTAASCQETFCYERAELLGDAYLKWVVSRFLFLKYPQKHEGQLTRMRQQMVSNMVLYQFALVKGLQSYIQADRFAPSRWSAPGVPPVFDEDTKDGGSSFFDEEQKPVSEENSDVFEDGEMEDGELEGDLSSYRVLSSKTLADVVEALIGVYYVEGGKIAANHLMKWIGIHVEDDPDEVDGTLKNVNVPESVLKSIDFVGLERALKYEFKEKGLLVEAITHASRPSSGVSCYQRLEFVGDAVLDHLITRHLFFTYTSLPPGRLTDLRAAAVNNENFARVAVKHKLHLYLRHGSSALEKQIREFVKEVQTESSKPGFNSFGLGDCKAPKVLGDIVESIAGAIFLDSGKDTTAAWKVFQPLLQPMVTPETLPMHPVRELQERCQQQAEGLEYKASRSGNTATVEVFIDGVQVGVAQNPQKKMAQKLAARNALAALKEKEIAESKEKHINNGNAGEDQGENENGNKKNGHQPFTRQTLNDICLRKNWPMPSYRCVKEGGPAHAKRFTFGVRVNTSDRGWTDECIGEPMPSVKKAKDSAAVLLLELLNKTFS
DCL1;SE1-701, sequence (Q9SP32 whole entry, stated change not applied, one chain of several): as the sequence (Q9SP32 whole entry) above

B1: forked-RNA (dsRNA)
RNA 1: CAACCCAAGAUAGAUCAUGCAGGCAGCUUCAUCAGAUGCCGCUCCCUCUUUUUUUCUCUA
RNA 2: GCUCCCUCUUUUUUUCUCUAGGCAUCUGAUGAAGCUGCCUGCAUGAUCUAUCUUGGGUUG
binds: SE1-701 | SEΔ497-547 | DCL1;SE1-701 | DCL1
